How the values were obtained:
[1] = molecular target: CEA (carcinoembryonic antigen) (UniProt P06731); assay: competitive ELISA on CEA, competitor anti-CEA monoclonal antibody; bsctDb as culture supernatant
[2] = molecular target: lysozyme (antigen) (UniProt P00698); assay: competitive ELISA on lysozyme, competitor anti-lysozyme Fab antibody fragment; bsctDb as culture supernatant

- % Inhibition in CEA Competition ELISA [1]: 100%
- % Inhibition in D1.3 Competition ELISA [2]: 100%
Substance: D1.3-A5B7 bispecific single chain tetravalent diabody (bispecific antibody)
